{"source": "paper PMC11290853", "binders": {"B1": {"name": "CCK-4, C-terminal tetrapeptide of cholecystokinin (peptide)", "chain": "WMDF", "modifications": "not checked"}}, "key": {"[1]": {"molecular_target": "T1, CCK1R(Y140A) expressed in HEK-293 cells (human), P32238", "T1 chain": "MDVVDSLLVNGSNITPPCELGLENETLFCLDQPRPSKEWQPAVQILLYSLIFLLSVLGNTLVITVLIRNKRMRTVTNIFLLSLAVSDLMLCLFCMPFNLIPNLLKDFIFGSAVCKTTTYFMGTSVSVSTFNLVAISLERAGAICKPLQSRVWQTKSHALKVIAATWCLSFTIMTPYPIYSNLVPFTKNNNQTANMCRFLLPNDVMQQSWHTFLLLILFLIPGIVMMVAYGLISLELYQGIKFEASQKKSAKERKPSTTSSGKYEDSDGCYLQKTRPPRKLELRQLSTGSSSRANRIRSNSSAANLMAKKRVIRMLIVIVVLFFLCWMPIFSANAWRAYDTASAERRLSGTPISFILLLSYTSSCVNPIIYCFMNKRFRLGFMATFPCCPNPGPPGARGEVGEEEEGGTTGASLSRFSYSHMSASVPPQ", "test": "radioligand binding"}, "[2]": {"molecular_target": "T2, type 1 cholecystokinin receptor, wild type, expressed in HEK-293 cells (human), P32238", "T2 chain": "T1 chain with A140Y", "test": "radioligand binding"}, "[3]": {"molecular_target": "T3, CCK2R(sterol 7M) expressed in HEK-293 cells (human), P32239", "T3 chain": "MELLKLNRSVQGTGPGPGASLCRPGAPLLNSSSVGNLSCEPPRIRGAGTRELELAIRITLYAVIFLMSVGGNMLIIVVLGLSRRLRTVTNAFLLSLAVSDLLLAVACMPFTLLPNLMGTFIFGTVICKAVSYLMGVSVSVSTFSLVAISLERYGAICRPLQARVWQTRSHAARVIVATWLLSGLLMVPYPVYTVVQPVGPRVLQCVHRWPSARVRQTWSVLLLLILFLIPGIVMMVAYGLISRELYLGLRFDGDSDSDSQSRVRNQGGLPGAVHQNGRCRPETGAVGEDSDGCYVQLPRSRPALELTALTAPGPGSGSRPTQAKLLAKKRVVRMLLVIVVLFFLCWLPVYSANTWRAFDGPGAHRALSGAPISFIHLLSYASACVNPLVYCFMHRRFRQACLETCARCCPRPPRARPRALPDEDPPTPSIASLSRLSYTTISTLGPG", "test": "radioligand binding"}, "[4]": {"molecular_target": "T4, type 2 cholecystokinin receptor, wild type, expressed in HEK-293 cells (human), P32239", "T4 chain": "T3 chain with F143L, S149A, G154S, I225L, L228F, I232V, M235A", "test": "radioligand binding"}, "[5]": {"molecular_target": "T5, CCK1R(sterol 7M) expressed in HEK-293 cells (human), P32238", "T5 chain": "T1 chain with F130L, S136A, A140Y, G141S, I216L, L219F, I223V, M226A", "test": "radioligand binding"}, "[6]": {"molecular_target": "T1, CCK1R(Y140A) expressed in HEK-293 cells …"}, "[7]": {"molecular_target": "T6, type 1 cholecystokinin receptor, wild type, expressed in SRD15 cells (human), P32238", "T6 chain": "T1 chain with A140Y"}, "[8]": {"molecular_target": "T2, type 1 cholecystokinin receptor, wild …"}, "[9]": {"molecular_target": "T3, CCK2R(sterol 7M) expressed in HEK-293 …"}, "[10]": {"molecular_target": "T7, type 1 cholecystokinin receptor, wild type, expressed in CHO-K1 cells (human), P32238", "T7 chain": "T1 chain with A140Y"}, "[11]": {"molecular_target": "T4, type 2 cholecystokinin receptor, wild …"}, "[12]": {"molecular_target": "T5, CCK1R(sterol 7M) expressed in HEK-293 …"}, "[13]": {"molecular_target": "T1, CCK1R(Y140A) expressed in HEK-293 cells …", "test": "radioligand binding"}, "[14]": {"molecular_target": "T6, type 1 cholecystokinin receptor, wild …", "test": "radioligand binding"}, "[15]": {"molecular_target": "T2, type 1 cholecystokinin receptor, wild …", "test": "radioligand binding"}, "[16]": {"molecular_target": "T3, CCK2R(sterol 7M) expressed in HEK-293 …", "test": "radioligand binding"}, "[17]": {"molecular_target": "T7, type 1 cholecystokinin receptor, wild …", "test": "radioligand binding"}, "[18]": {"molecular_target": "T4, type 2 cholecystokinin receptor, wild …", "test": "radioligand binding"}, "[19]": {"molecular_target": "T5, CCK1R(sterol 7M) expressed in HEK-293 …", "test": "radioligand binding"}}, "note": "Changes are numbered by the printed parent chain. Where two headings read alike, the source gives them in different places."}
{"binder": "B1", "values": [{"measurement": "pIC50", "setting": "[1]", "result": 4.3}, {"measurement": "pIC50", "setting": "[2]", "result": 4}, {"measurement": "pIC50", "setting": "[3]", "result": 7.6}, {"measurement": "pIC50", "setting": "[4]", "result": 7.8}, {"measurement": "pIC50", "setting": "[5]", "result": "< 4"}, {"measurement": "iCa^2+, pEC50; HEK-293 cells, + Chol", "setting": "[6]", "result": 5.7}, {"measurement": "iCa^2+, pEC50; HEK-293 cells, control", "setting": "[6]", "result": 5.7}, {"measurement": "iCa^2+, pEC50; SRD15-CCK1R cells", "setting": "[7]", "result": 6.8}, {"measurement": "iCa^2+, pEC50; SRD15-CCK1R cells + MβCD (cholesterol depleted)", "setting": "[7]", "result": 5.7}, {"measurement": "iCa^2+, pEC50; HEK-293 cells, + Chol", "setting": "[8]", "result": 6.2}, {"measurement": "iCa^2+, pEC50; HEK-293 cells, control", "setting": "[8]", "result": 5.5}, {"measurement": "iCa^2+, pEC50; HEK-293 cells, + Chol", "setting": "[9]", "result": 9.2}, {"measurement": "iCa^2+, pEC50; HEK-293 cells, control", "setting": "[9]", "result": 9.1}, {"measurement": "iCa^2+, pEC50; CHO-CCK1R cells", "setting": "[10]", "result": 5.3}, {"measurement": "iCa^2+, pEC50; HEK-293 cells, + Chol", "setting": "[11]", "result": 9.4}, {"measurement": "iCa^2+, pEC50; HEK-293 cells, control", "setting": "[11]", "result": 9.5}, {"measurement": "iCa^2+, pEC50; HEK-293 cells, + Chol", "setting": "[12]", "result": 6.8}, {"measurement": "iCa^2+, pEC50; HEK-293 cells, control", "setting": "[12]", "result": 6.7}, {"measurement": "pIC50", "setting": "[13]", "result": 4.3}, {"measurement": "pIC50", "setting": "[14]", "result": 5.5}, {"measurement": "pIC50", "setting": "[15]", "result": 4.2}, {"measurement": "pIC50", "setting": "[16]", "result": 7.2}, {"measurement": "pIC50", "setting": "[17]", "result": 4.5}, {"measurement": "pIC50", "setting": "[18]", "result": 7.7}, {"measurement": "pIC50", "setting": "[19]", "result": "< 4"}]}
